# Assay results published in patent publication US20220025021A1 (BETH ISRAEL DEACONESS MEDICAL CENTER, published 2022).
# Assays:
# Experiment in all cases: cell-based or functional assay
# [1] = molecular target: HIV-1 Env of pseudovirus SC422661.8 (HIV-1)
# [2] = molecular target: HIV-1 Env of pseudovirus RHPA4259.7 (HIV-1)
# [3] = molecular target: HIV-1 Env of pseudovirus Du172.17 (HIV-1)
# [4] = molecular target: HIV-1 Env of pseudovirus BB1012-11.TC21 (HIV-1)
# [5] = molecular target: HIV-1 Env of pseudovirus CNE52 (HIV-1)
# [6] = molecular target: HIV-1 Env of pseudovirus 0260.v5.c36 (HIV-1)
Binder,neutralization IC50 [1] [µg/mL],neutralization IC80 [1] [µg/mL],neutralization IC50 [2] [µg/mL],neutralization IC80 [2] [µg/mL],neutralization IC50 [3] [µg/mL],neutralization IC80 [3] [µg/mL],neutralization IC50 [4] [µg/mL],neutralization IC80 [4] [µg/mL],neutralization IC50 [5] [µg/mL],neutralization IC80 [5] [µg/mL],neutralization IC50 [6] [µg/mL],neutralization IC80 [6] [µg/mL]
"MS-77 (antibody, V domains shown) VH: QVQLVQSGPEVRKPGTSVKVSCKAPGNTFKTYDLHWVRSVPGQGLQWMGWISHEGDKKVIVERFKAKVTIDWDRSTNTAYLQLSGLTSGDTAVYYCAKGSKHRLRDYALYDDDGALNWAVDVDYLSNLEFWGQGTAVTVSS VL: DFVLTQSPHSLSVTPGESASISCKSSHSLIHGDRNNYLAWYVQKPGRSPQLLIYLASSRASGVPDRFSGSGSDKDFTLKISRVETEDVGTYYCMQGRESPWTFGQGTKVDIKR",0.373,3.59,0.209,0.734,2.23,12.2,0.023,0.103,0.322,2.71,0.019,0.101
"MS-78 (antibody, V domains shown) VH: QVQLVQSGPEVRKPGTSVKVSCKAPGNTLKTYDLHWVRSVPGQGLEWMGWISHEGDKKVIVERFKAKVTIDWDRSTNTAYLQLSGLTSGDTAVYYCAKGSKHRLRDYALYDDDGALNWAVDVDYLSNLEFWGQGTAVTVSS VL: DFVLTQSPHSLSVTPGESASISCKSSHSLIHGDRNNYLAWYVQKPGRSPQLLIYLASSRASGVPDRFSGSGSDKDFTLKISRVETEDVGTYYCMQGRESPWTFGQGTKVDIKR",0.635,3.63,0.241,0.841,1.71,7,0.024,0.105,0.233,1.39,0.02,0.095
"MS-79 (antibody, V domains shown) VH: QVQLVQSGPEVRKPGTSVKVSCKAPGNTLKTYDLHWVRSVPGQGLQWMGWISHEGDKKVIVERFKAKVTITWDRSTNTAYLQLSGLTSGDTAVYYCAKGSKHRLRDYALYDDDGALNWAVDVDYLSNLEFWGQGTAVTVSS VL: DFVLTQSPHSLSVTPGESASISCKSSHSLIHGDRNNYLAWYVQKPGRSPQLLIYLASSRASGVPDRFSGSGSDKDFTLKISRVETEDVGTYYCMQGRESPWTFGQGTKVDIKR",0.587,> 25,0.221,0.792,7.28,> 25,0.019,0.08,2.42,> 25,0.028,0.159
"MS-80 (antibody, V domains shown) VH: QVQLVQSGPEVRKPGTSVKVSCKAPGNTLKTYDLHWVRSVPGQGLQWMGWISHEGDKKVIVERFKAKVTIDRDRSTNTAYLQLSGLTSGDTAVYYCAKGSKHRLRDYALYDDDGALNWAVDVDYLSNLEFWGQGTAVTVSS VL: DFVLTQSPHSLSVTPGESASISCKSSHSLIHGDRNNYLAWYVQKPGRSPQLLIYLASSRASGVPDRFSGSGSDKDFTLKISRVETEDVGTYYCMQGRESPWTFGQGTKVDIKR",0.451,> 25,0.267,1.24,15.2,> 25,0.02,0.086,5.25,> 25,0.041,0.321
"MS-81 (antibody, V domains shown) VH: QVQLVQSGPEVRKPGTSVKVSCKAPGNTLKTYDLHWVRSVPGQGLQWMGWISHEGDKKVIVERFKAKVTIDWDRSTNTAYLELSGLTSGDTAVYYCAKGSKHRLRDYALYDDDGALNWAVDVDYLSNLEFWGQGTAVTVSS VL: DFVLTQSPHSLSVTPGESASISCKSSHSLIHGDRNNYLAWYVQKPGRSPQLLIYLASSRASGVPDRFSGSGSDKDFTLKISRVETEDVGTYYCMQGRESPWTFGQGTKVDIKR",0.418,4.25,0.202,0.897,1.65,6.37,0.024,0.102,0.212,1.8,0.02,0.075
"MS-82 (antibody, V domains shown) VH: QVQLVQSGPEVRKPGTSVKVSCKAPGNTLKTYDLHWVRSVPGQGLQWMGWISHEGDKKVIVERFKAKVTIDWDRSTNTAYLQLSGLRSGDTAVYYCAKGSKHRLRDYALYDDDGALNWAVDVDYLSNLEFWGQGTAVTVSS VL: DFVLTQSPHSLSVTPGESASISCKSSHSLIHGDRNNYLAWYVQKPGRSPQLLIYLASSRASGVPDRFSGSGSDKDFTLKISRVETEDVGTYYCMQGRESPWTFGQGTKVDIKR",0.387,3.29,0.192,0.672,1.88,7,0.023,0.108,0.206,1.18,0.016,0.051
"MS-83 (antibody, V domains shown) VH: QVQLVQSGPEVRKPGTSVKVSCKAPGNTLKTYDLHWVRSVPGQGLQWMGWISHEGDKKVIVERFKAKVTIDWDRSTNTAYLQLSGLTSGDTAVYYCAKGSKHRLRDYALYDDEGALNWAVDVDYLSNLEFWGQGTAVTVSS VL: DFVLTQSPHSLSVTPGESASISCKSSHSLIHGDRNNYLAWYVQKPGRSPQLLIYLASSRASGVPDRFSGSGSDKDFTLKISRVETEDVGTYYCMQGRESPWTFGQGTKVDIKR",0.267,2.11,0.15,0.663,1.47,7.4,0.018,0.082,0.135,1.04,0.023,0.087
"MS-84 (antibody, V domains shown) VH: QVQLVQSGPEVRKPGTSVKVSCKAPGNTLKTYDLHWVRSVPGQGLQWMGWISHEGDKKVIVERFKAKVTIDWDRSTNTAYLQLSGLRSGDTAVYYCAKGSKHRLRDYALYDDDGALNWAVDVDYLSNLEFWGQGTAVTVSS VL: DFVLTQSPLSLPVTPGEPASISCKSSHSLIHGDRNNYLAWYVQKPGQSPQLLIYLASSRASGVPDRFSGSGSDKDFTLKISRVEAEDVGVYYCMQGRESPWTFGQGTKVDIKR",0.192,1.37,0.175,0.773,1.64,6.55,0.019,0.085,0.092,0.83,0.016,0.062
"MS-85 (antibody, V domains shown) VH: QVQLVQSGPEVRKPGTSVKVSCKAPGNTLKTYDLHWVRSVPGQGLQWMGWISHEGDKKVIVERFKAKVTIDWDRSTNTAYLQLSGLTSGDTAVYYCAKGSKHRLRDYALYDDDGALNWAVDVDYLSNLEFWGQGTAVTVSS VL: DIVLTQSPHSLSVTPGESASISCKSSHSLIHGDRNNYLAWYVQKPGRSPQLLIYLASSRASGVPDRFSGSGSGTDFTLKISRVETEDVGTYYCMQGRESPWTFGQGTKVDIKR",0.54,7.04,0.173,0.794,2.23,9.53,0.028,0.124,0.341,4.71,0.019,0.059
MS-86 (antibody) VH: not shown VL: DFVLTQSPHSLSVTPGESASISCKSSHSLIHGDRNNYLAWYVQKPGRSPQLLIYLASSRASGVPDRFSGSGSDKDFTLKISRVETEDVGTYYCMQGRESPWTFGQGTKVDIKRTVAAPSVFIFPPSDEQLKSGTASVVCLLNNFYPREAKVQWKVDNALQSGNSQESVTEQDSKDSTYSLSSTLTLSKADYEKHKVYACEVTHQGLSSPVTKSFNRGEC,1.2,> 25,0.305,1.1,4.94,18.8,0.048,0.159,1.46,13.3,0.036,0.191
"MS-87 (antibody, V domains shown) VH: QVQLVQSGPEVRKPGTSVKVSCKAPGNTLKTYDLHWVRSVPGQGLQWMGWISHEGDKKVIVERFKAKVTITRDRSTNTAYLQLSGLTSGDTAVYYCAKGSKHRLRDYALYDDDGALNWAVDVDYLSNLEFWGQGTAVTVSS VL: DFVLTQSPHSLSVTPGESASISCKSSHSLIHGDRNNYLAWYVQKPGRSPQLLIYLASSRASGVPDRFSGSGSDKDFTLKISRVETEDVGTYYCMQGRESPWTFGQGTKVDIKR",0.711,13.9,0.294,1.09,> 25,> 25,0.023,0.102,2.69,> 25,0.114,1.01
